The values that follow come from patent US20230029341A1.

This test has as its target HLA-A*02:01/NY-ESO-1 (modified, …) peptide-MHC on peptide-loaded T2 cells (human). Description: cell-based or functional assay.

Substance “C2057 + C2058 (TCR 1G4:α95LY alpha ECD and beta ECD, each fused to LILRB1 TM and ICD)” came in with an EC50[nM] of MAGE-A3 peptide for activator C563 in Jurkat NFAT-luciferase cells co-expressing this inhibitor; T2 cells with 50 uM NY-ESO-1 peptide of more than 10000 nM.
